Patent US20140206607A1 (INDIANA UNIVERSITY RESEARCH AND TECHNOLOGY, published 2014)
Numbered stars: 1 amine (or outer) side, 2 acyl side, 3 side chain; on linkers, the order of the positions; unused ones are H or OH. Square brackets hold non-standard residues; d marks the D form. Side chains are listed from the residue outwards. Ends that are not written are not given here. * marks the point of attachment. 40K‑TE PEG = 40 kDa PEG covalently bound via thioether, formed by reaction of the free thiol of the peptide (Cys side chain) with an iodoacetic-functionalized PEG; γGlu = O=C(O)[C@H](CCC(=O)[*:2])N[*:1]; Palmitoyl = CCCCCCCCCCCCCCCC(=O)*; Aib = CC(C)(N)C(=O)O

T1: GIP receptor (UniProt P48546 22-466)
T1 sequence (looked up): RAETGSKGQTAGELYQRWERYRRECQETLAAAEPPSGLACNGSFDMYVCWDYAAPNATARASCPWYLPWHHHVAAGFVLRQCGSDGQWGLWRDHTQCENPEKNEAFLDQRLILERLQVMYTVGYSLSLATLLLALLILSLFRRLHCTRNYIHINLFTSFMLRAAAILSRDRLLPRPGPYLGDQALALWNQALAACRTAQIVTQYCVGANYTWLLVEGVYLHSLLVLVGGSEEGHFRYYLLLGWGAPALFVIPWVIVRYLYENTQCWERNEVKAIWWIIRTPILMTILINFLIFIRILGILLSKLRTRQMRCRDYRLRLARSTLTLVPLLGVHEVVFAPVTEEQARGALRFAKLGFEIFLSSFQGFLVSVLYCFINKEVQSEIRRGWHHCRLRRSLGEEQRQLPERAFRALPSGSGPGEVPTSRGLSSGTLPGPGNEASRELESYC

B1: peptide of SEQ ID NO: 30 (peptide)
peptide: H[Aib]QGTFTSDK([γGlu-Palmitoyl])SKYLD[Aib]RAAQDFVQWLLDGRG-NH2
modifications: N-terminus assumed
SMILES: CCCCCCCCCCCCCCCC(=O)N[C@@H](CCC(=O)NCCCC[C@H](NC(=O)[C@H](CC(=O)O)NC(=O)[C@H](CO)NC(=O)[C@@H](NC(=O)[C@H](Cc1ccccc1)NC(=O)[C@@H](NC(=O)CNC(=O)[C@H](CCC(N)=O)NC(=O)C(C)(C)NC(=O)[C@@H](N)Cc1c[nH]cn1)[C@@H](C)O)[C@@H](C)O)C(=O)N[C@@H](CO)C(=O)N[C@@H](CCCCN)C(=O)N[C@@H](Cc1ccc(O)cc1)C(=O)N[C@@H](CC(C)C)C(=O)N[C@@H](CC(=O)O)C(=O)NC(C)(C)C(=O)N[C@@H](CCCNC(=N)N)C(=O)N[C@@H](C)C(=O)N[C@@H](C)C(=O)N[C@@H](CCC(N)=O)C(=O)N[C@@H](CC(=O)O)C(=O)N[C@@H](Cc1ccccc1)C(=O)N[C@H](C(=O)N[C@@H](CCC(N)=O)C(=O)N[C@@H](Cc1c[nH]c2ccccc12)C(=O)N[C@@H](CC(C)C)C(=O)N[C@@H](CC(C)C)C(=O)N[C@@H](CC(=O)O)C(=O)NCC(=O)N[C@@H](CCCNC(=N)N)C(=O)NCC(N)=O)C(C)C)C(=O)O
B2: peptide of SEQ ID NO: 29 (peptide)
peptide: H[Aib]QGTFTSDK([γGlu-γGlu-Palmitoyl])SKYLD[Aib]RAAQDFVQWLL[Aib]GRG-NH2
modifications: N-terminus assumed
SMILES: CCCCCCCCCCCCCCCC(=O)N[C@@H](CCC(=O)N[C@@H](CCC(=O)NCCCC[C@H](NC(=O)[C@H](CC(=O)O)NC(=O)[C@H](CO)NC(=O)[C@@H](NC(=O)[C@H](Cc1ccccc1)NC(=O)[C@@H](NC(=O)CNC(=O)[C@H](CCC(N)=O)NC(=O)C(C)(C)NC(=O)[C@@H](N)Cc1c[nH]cn1)[C@@H](C)O)[C@@H](C)O)C(=O)N[C@@H](CO)C(=O)N[C@@H](CCCCN)C(=O)N[C@@H](Cc1ccc(O)cc1)C(=O)N[C@@H](CC(C)C)C(=O)N[C@@H](CC(=O)O)C(=O)NC(C)(C)C(=O)N[C@@H](CCCNC(=N)N)C(=O)N[C@@H](C)C(=O)N[C@@H](C)C(=O)N[C@@H](CCC(N)=O)C(=O)N[C@@H](CC(=O)O)C(=O)N[C@@H](Cc1ccccc1)C(=O)N[C@H](C(=O)N[C@@H](CCC(N)=O)C(=O)N[C@@H](Cc1c[nH]c2ccccc12)C(=O)N[C@@H](CC(C)C)C(=O)N[C@@H](CC(C)C)C(=O)NC(C)(C)C(=O)NCC(=O)N[C@@H](CCCNC(=N)N)C(=O)NCC(N)=O)C(C)C)C(=O)O)C(=O)O
B3: peptide of SEQ ID NO: 27 (peptide)
peptide: H[dS]QGTFTSDK([γGlu-Palmitoyl])SKYLDERAAQDFVQWLLKGRG-NH2
modifications: N-terminus assumed
SMILES: CCCCCCCCCCCCCCCC(=O)N[C@@H](CCC(=O)NCCCC[C@H](NC(=O)[C@H](CC(=O)O)NC(=O)[C@H](CO)NC(=O)[C@@H](NC(=O)[C@H](Cc1ccccc1)NC(=O)[C@@H](NC(=O)CNC(=O)[C@H](CCC(N)=O)NC(=O)[C@@H](CO)NC(=O)[C@@H](N)Cc1c[nH]cn1)[C@@H](C)O)[C@@H](C)O)C(=O)N[C@@H](CO)C(=O)N[C@@H](CCCCN)C(=O)N[C@@H](Cc1ccc(O)cc1)C(=O)N[C@@H](CC(C)C)C(=O)N[C@@H](CC(=O)O)C(=O)N[C@@H](CCC(=O)O)C(=O)N[C@@H](CCCNC(=N)N)C(=O)N[C@@H](C)C(=O)N[C@@H](C)C(=O)N[C@@H](CCC(N)=O)C(=O)N[C@@H](CC(=O)O)C(=O)N[C@@H](Cc1ccccc1)C(=O)N[C@H](C(=O)N[C@@H](CCC(N)=O)C(=O)N[C@@H](Cc1c[nH]c2ccccc12)C(=O)N[C@@H](CC(C)C)C(=O)N[C@@H](CC(C)C)C(=O)N[C@@H](CCCCN)C(=O)NCC(=O)N[C@@H](CCCNC(=N)N)C(=O)NCC(N)=O)C(C)C)C(=O)O
B4: peptide of SEQ ID NO: 31 (peptide)
peptide: H[Aib]QGTFTSDK([γGlu-γGlu-Palmitoyl])SKYLD[Aib]RAAQDFVQWLMKGRG-OH
modifications: N-terminus assumed
SMILES: CCCCCCCCCCCCCCCC(=O)N[C@@H](CCC(=O)N[C@@H](CCC(=O)NCCCC[C@H](NC(=O)[C@H](CC(=O)O)NC(=O)[C@H](CO)NC(=O)[C@@H](NC(=O)[C@H](Cc1ccccc1)NC(=O)[C@@H](NC(=O)CNC(=O)[C@H](CCC(N)=O)NC(=O)C(C)(C)NC(=O)[C@@H](N)Cc1c[nH]cn1)[C@@H](C)O)[C@@H](C)O)C(=O)N[C@@H](CO)C(=O)N[C@@H](CCCCN)C(=O)N[C@@H](Cc1ccc(O)cc1)C(=O)N[C@@H](CC(C)C)C(=O)N[C@@H](CC(=O)O)C(=O)NC(C)(C)C(=O)N[C@@H](CCCNC(=N)N)C(=O)N[C@@H](C)C(=O)N[C@@H](C)C(=O)N[C@@H](CCC(N)=O)C(=O)N[C@@H](CC(=O)O)C(=O)N[C@@H](Cc1ccccc1)C(=O)N[C@H](C(=O)N[C@@H](CCC(N)=O)C(=O)N[C@@H](Cc1c[nH]c2ccccc12)C(=O)N[C@@H](CC(C)C)C(=O)N[C@@H](CCSC)C(=O)N[C@@H](CCCCN)C(=O)NCC(=O)N[C@@H](CCCNC(=N)N)C(=O)NCC(=O)O)C(C)C)C(=O)O)C(=O)O
B5: peptide of SEQ ID NO: 28 (peptide)
peptide: H[dS]QGTFTSDK([γGlu-Palmitoyl])SKYLDERAAQDFVQWLLDGRK-NH2
modifications: N-terminus assumed
SMILES: CCCCCCCCCCCCCCCC(=O)N[C@@H](CCC(=O)NCCCC[C@H](NC(=O)[C@H](CC(=O)O)NC(=O)[C@H](CO)NC(=O)[C@@H](NC(=O)[C@H](Cc1ccccc1)NC(=O)[C@@H](NC(=O)CNC(=O)[C@H](CCC(N)=O)NC(=O)[C@@H](CO)NC(=O)[C@@H](N)Cc1c[nH]cn1)[C@@H](C)O)[C@@H](C)O)C(=O)N[C@@H](CO)C(=O)N[C@@H](CCCCN)C(=O)N[C@@H](Cc1ccc(O)cc1)C(=O)N[C@@H](CC(C)C)C(=O)N[C@@H](CC(=O)O)C(=O)N[C@@H](CCC(=O)O)C(=O)N[C@@H](CCCNC(=N)N)C(=O)N[C@@H](C)C(=O)N[C@@H](C)C(=O)N[C@@H](CCC(N)=O)C(=O)N[C@@H](CC(=O)O)C(=O)N[C@@H](Cc1ccccc1)C(=O)N[C@H](C(=O)N[C@@H](CCC(N)=O)C(=O)N[C@@H](Cc1c[nH]c2ccccc12)C(=O)N[C@@H](CC(C)C)C(=O)N[C@@H](CC(C)C)C(=O)N[C@@H](CC(=O)O)C(=O)NCC(=O)N[C@@H](CCCNC(=N)N)C(=O)N[C@@H](CCCCN)C(N)=O)C(C)C)C(=O)O

Each binder was assayed against GLP-1 receptor (UniProt P43220 24-463, limits assumed) (assay: cell-based or functional assay).

Binder | EC50 (nM) at GLP-1 receptor
B1 | 0.0082 nM
H[Aib]QGTFTSDYSKYLDERRA[Aib]EFVC(40K‑TE PEG)WLLDT-NH2 [peptide of SEQ ID NO: 14] | 0.076 nM
B2 | 0.007 nM
B3 | 0.005 nM
B4 | 0.007 nM
B5 | 0.003 nM

Each binder was assayed against glucagon receptor (UniProt P47871 26-477, limits assumed) (assay: cell-based or functional assay).
Sequence of glucagon receptor (P47871 26-477 limits assumed): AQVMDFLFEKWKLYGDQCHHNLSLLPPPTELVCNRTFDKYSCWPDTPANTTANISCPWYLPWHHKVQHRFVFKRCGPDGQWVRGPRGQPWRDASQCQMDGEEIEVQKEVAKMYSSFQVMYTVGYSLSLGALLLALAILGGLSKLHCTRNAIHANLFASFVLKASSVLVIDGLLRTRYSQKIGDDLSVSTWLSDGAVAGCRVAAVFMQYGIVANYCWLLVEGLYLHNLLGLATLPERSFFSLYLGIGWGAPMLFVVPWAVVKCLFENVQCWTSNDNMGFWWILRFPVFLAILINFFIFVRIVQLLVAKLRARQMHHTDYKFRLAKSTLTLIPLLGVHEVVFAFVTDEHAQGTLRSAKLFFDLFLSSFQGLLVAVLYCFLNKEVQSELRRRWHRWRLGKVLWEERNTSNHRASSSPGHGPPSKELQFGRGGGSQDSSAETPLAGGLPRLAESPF

Binder | EC50 (nM) at glucagon receptor
B1 | 0.933 nM
H[Aib]QGTFTSDYSKYLDERRA[Aib]EFVC(40K‑TE PEG)WLLDT-NH2 [peptide of SEQ ID NO: 14] | 0.365 nM
B2 | 0.014 nM
B3 | 0.022 nM
B4 | 0.016 nM
B5 | 0.015 nM

What follows are binders tested against T1, GIP receptor (assay: cell-based or functional assay).

Binder | EC50 (nM) at GIP receptor
B1 | 9.06 nM
H[Aib]QGTFTSDYSKYLDERRA[Aib]EFVC(40K‑TE PEG)WLLDT-NH2 [peptide of SEQ ID NO: 14] | 33.7 nM
B2 | 1.65 nM
B3 | 2.12 nM
B4 | 2.34 nM
B5 | 2.84 nM
